Measured values published in patent publication US20230055235, “ANTI-CANCER IMMUNOTHERAPEUTIC COMPOSITION FOR TREATING CANCER” (INTEROLIGO CORPORATION., published 2023).

Molecular target: PD-L1 (programmed death-ligand 1) (UniProt Q9NZQ7 Q9NZQ7:19-238)
Assay: inhibition; PD-1/PD-L1 binding ELISA
Description: PD-1/PD-L1 binding inhibition of the synthetic fragment aptamer was determined by conducting a purified protein-based test. Purified protein-based PD-1/PD-L1 binding inhibition test (BPS, USA) was conducted by ELISA method based on horseradish peroxidase (HRP). First, purified PD-L1 protein according to the product manual was fixed on a 96 well plate, and then each well was washed with Immuno Buffer 1 for a total of 3 times in order to remove unbound PD-L1 protein. Aptamers were prepared in a selection buffer for each experimental concentration and slowly cooled from 95° C. to 37° C. by 0.1° C. per second. 5 μL of the aptamer was added to the well to which PD-L1 protein was fixed, followed by adding 20 μL of Biotin-bound PD-1 protein prepared according to the corresponding instructions to each well again. […] After adding 100 μL of the HRP substrate mixture to the well, from which the supernatant was removed, a fluorescent intensity was measured using a luminometer so as to determine the inhibition of PD-1/PD-L1 binding. IC₅₀ (50% inhibitory concentration) was calculated using the online tool.
Aptamer PD-1/PD-L1 binding inhibitory activity described in Table 6 of Example 1.3.1 was measured in the same manner as in Example 1.2.2.

Chain of PD-L1 (programmed death-ligand 1) (Q9NZQ7 19-238, one chain of several): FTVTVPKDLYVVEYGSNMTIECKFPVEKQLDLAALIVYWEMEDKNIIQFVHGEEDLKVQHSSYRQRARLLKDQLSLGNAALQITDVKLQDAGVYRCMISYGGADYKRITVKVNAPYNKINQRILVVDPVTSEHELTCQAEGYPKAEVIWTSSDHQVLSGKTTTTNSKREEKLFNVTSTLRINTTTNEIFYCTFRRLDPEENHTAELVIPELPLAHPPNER

## AAGTTTTTGATTGTACCTTAGTG (ssDNA, Bz-dU at every n) [PL021]
  IC50: 27.7 nM
